Reference: US20150037339A1 (Regeneron, published 2015)

T1: Activin AB (human, UniProt P08476 311-426; P09529 293-407)
T1 construct: Heterodimer of one betaA and one betaB subunit; bought (R&D Systems #1006-AB-005 / #1066-AB)
T1 chain 1: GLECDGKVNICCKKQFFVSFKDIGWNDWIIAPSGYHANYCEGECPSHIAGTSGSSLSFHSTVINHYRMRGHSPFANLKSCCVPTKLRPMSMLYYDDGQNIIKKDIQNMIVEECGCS
T1 chain 2: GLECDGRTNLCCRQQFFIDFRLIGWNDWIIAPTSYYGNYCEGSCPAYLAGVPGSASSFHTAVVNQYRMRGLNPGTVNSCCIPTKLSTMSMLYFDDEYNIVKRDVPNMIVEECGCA

T2: Activin A (human, UniProt P08476 311-426)
T2 sequence: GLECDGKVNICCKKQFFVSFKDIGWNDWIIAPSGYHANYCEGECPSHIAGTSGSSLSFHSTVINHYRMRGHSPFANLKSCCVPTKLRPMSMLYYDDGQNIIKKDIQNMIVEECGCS

T3: Activin AC (human, UniProt P55103 237-352)
T3 sequence 1: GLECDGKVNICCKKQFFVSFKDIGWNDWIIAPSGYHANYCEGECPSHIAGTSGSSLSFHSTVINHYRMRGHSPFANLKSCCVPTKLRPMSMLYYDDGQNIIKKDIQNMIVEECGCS
T3 sequence 2: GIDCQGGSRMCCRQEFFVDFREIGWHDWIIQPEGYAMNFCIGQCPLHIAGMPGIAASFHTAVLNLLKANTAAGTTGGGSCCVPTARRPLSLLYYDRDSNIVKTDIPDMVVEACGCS

T4: Activin B (human, UniProt P09529 293-407)
T4 construct: Homodimer of two betaB subunits; bought (R&D Systems #659-AB)
T4 chain: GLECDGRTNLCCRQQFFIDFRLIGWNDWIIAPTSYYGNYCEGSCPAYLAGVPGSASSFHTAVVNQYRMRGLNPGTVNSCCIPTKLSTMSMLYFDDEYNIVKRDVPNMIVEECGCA

T5: hBMP10 (human, UniProt O95393 317-424)
T5 construct: Bought protein
T5 sequence (looked up): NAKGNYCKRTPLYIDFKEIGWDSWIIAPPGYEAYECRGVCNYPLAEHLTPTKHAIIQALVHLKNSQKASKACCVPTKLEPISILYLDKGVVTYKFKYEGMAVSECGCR

T6: hBMP9 (human, UniProt Q9UK05 320-429)
T6 construct: Bought protein
T6 sequence (looked up): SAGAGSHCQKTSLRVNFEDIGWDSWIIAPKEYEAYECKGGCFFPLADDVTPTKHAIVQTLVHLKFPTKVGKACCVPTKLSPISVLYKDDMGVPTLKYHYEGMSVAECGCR

T7: hBMP7 (human, UniProt P18075 293-431)
T7 construct: Bought protein
T7 sequence (looked up): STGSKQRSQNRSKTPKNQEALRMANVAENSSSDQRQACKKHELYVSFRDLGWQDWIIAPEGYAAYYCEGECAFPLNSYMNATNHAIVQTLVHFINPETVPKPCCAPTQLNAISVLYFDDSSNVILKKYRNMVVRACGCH

T8: hBMP4 (human, UniProt P12644 293-408)
T8 construct: Bought protein
T8 sequence (looked up): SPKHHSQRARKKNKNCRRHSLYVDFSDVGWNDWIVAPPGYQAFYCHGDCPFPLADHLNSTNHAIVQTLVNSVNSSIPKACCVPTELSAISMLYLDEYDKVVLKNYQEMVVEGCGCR

T9: hBMP6 (human, UniProt P22004 382-513, limits assumed)
T9 construct: Bought protein
T9 sequence (looked up): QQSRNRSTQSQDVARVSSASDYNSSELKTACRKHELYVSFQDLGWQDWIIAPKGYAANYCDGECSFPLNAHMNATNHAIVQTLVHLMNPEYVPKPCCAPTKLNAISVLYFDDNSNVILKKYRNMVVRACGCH


What was measured:
Activin AB [1] = target: T1, Activin AB; experiment: SPR (Biacore), mAb captured on anti-Fc, Activin AB injected, 37 C
Method in brief: (§1)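 Antibodies were captured and activin variants injected, with association monitored for 240 s and dissociation for 600 s. Runs were at 25 °C or 37 °C as indicated per assay. KD was calculated as kd/ka and t1/2 as ln2/(60·kd) in min, from the fitted rate constants.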

Activin A [2] = target: T2, Activin A; experiment: cell-based or functional assay
Activin AC [3] = target: T3, Activin AC; experiment: cell-based or functional assay
Activin AB [4] = target: T1, Activin AB; experiment: cell-based or functional assay
Activin AC [5] = target: T3, Activin AC; experiment: SPR (Biacore), mAb captured on anti-Fc, Activin AC injected, 25 C
Method in brief: as §1

hBMP2 = target: T10, hBMP2 (human, UniProt P12643 283-396); experiment: SPR (Biacore 4000), captured on anti-human Fc, 200 nM ligand injected, 37 C
T10 construct: Bought protein; also called BPM2
Procedure: (§2) For the binding experiment, a Biacore 4000 instrument was used. […] All Biacore binding studies were performed in HBS-T running buffer (0.01 M HEPES pH 7.4, 0.5 M NaCl, 3 mM EDTA, 0.5 mg/ml bovine serum albumin, 0.05% v/v Surfactant P20). […] All binding measurements were performed at 37° C. […] Over the captured antibody surface was injected the TGF-beta family ligands through concentrations ranging from 3.1 nM to 200 nM.

Activin A [6] = target: T2, Activin A; experiment: as above
Procedure: as §2

Activin B = target: T4, Activin B; experiment: as above
Procedure: as §2

hBMP10 = target: T5, hBMP10; experiment: as above
Procedure: as §2

GDF8 = target: T11, GDF8 (human, UniProt O14793 267-375); experiment: as above
T11 construct: Bought (R&D Systems #788-G8); also called hGDF8; growth and differentiation factor-8
Procedure: as §2

GDF11 = target: T12, GDF11 (human, UniProt O95390 299-407); experiment: as above
T12 construct: Bought protein; also called hGDF11
Procedure: as §2

Activin AC [7] = target: T3, Activin AC; experiment: as above
Procedure: as §2

hBMP9 = target: T6, hBMP9; experiment: as above
Procedure: as §2

hBMP7 = target: T7, hBMP7; experiment: as above
Procedure: as §2

hBMP4 = target: T8, hBMP4; experiment: as above
Procedure: as §2

Activin AB [8] = target: T1, Activin AB; experiment: as above
Procedure: as §2

hBMP6 = target: T9, hBMP6; experiment: as above
Procedure: as §2

Activin AB [9] = target: T1, Activin AB; experiment: SPR (Biacore), mAb captured on anti-Fc, Activin AB injected, 25 C
Method in brief: as §1

Activin AC [10] = target: T3, Activin AC; experiment: SPR (Biacore), mAb captured on anti-Fc, Activin AC injected, 37 C
Method in brief: as §1

T12 sequence (O95390 299-407 limits assumed): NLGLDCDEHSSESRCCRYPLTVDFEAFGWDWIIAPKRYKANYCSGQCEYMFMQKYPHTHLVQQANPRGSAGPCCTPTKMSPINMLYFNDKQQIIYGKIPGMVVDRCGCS
T10 sequence (P12643 283-396 limits assumed): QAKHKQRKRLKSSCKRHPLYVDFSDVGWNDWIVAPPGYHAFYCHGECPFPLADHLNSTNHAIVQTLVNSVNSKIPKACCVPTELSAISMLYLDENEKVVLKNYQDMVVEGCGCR

Row | 50 nM Ag Bound (RU) (Activin AB [1]) | Kd (Activin AB [1]) [nM] | koff (Activin AB [1]) [s⁻¹] | kon (Activin AB [1]) [M⁻¹ s⁻¹] | t1/2 (Activin AB [1]) [min] | IC50 [M], inhibition of 100 pM Activin A in A204/CAGAx12-Luc Smad2/3-luciferase bioassay (Activin A [2]) [M] | IC50 [M], inhibition of 4 nM Activin AC in A204/CAGAx12-Luc Smad2/3-luciferase bioassay (Activin AC [3]) [M] | IC50 [M], inhibition of 30 pM Activin AB in A204/CAGAx12-Luc Smad2/3-luciferase bioassay (Activin AB [4]) [M] | 50 nM Ag Bound (RU) (Activin AC [5]) | Kd (Activin AC [5]) [nM] | koff (Activin AC [5]) [s⁻¹] | kon (Activin AC [5]) [M⁻¹ s⁻¹] | t1/2 (Activin AC [5]) [min] | binding response (resonance units) for 200 nM ligand (hBMP2) [RU] | binding response (resonance units) for 200 nM ligand (Activin A [6]) [RU] | binding response (resonance units) for 200 nM ligand (Activin B) [RU] | binding response (resonance units) for 200 nM ligand (hBMP10) [RU] | binding response (resonance units) for 200 nM ligand (GDF8) [RU] | binding response (resonance units) for 200 nM ligand (GDF11) [RU] | binding response (resonance units) for 200 nM ligand (Activin AC [7]) [RU] | Binder | other results
1 | 45.9 | 0.464 | 0.00425 | 9.17e+06 | 2.7 | 5.6e-11 | 6.5e-09 | 2.2e-09 | 18.6 | 1.57 | 0.00205 | 1.31e+06 | 5.6 | -2.3 | 63.9 | -1.8 | -0.7 | 0.5 | 1 | 14.2 | H4H10442P2 (antibody, human IgG4, V domains shown) VH: QVQLQESGPGLVKPSETLSITCTVSGGSFSSHFWTWIRQPPGKGLEWIGYLHYSGGTSYNPSLKSRVIISVDTSKNQFSLKLNSVTAADTAVYYCARARSGITFGGLIVPGSFDIWGQGTMVTVSS VL: not shown | binding response (resonance units) for 200 nM ligand (hBMP9): 0 RU; binding response (resonance units) for 200 nM ligand (hBMP7): 1.5 RU; binding response (resonance units) for 200 nM ligand (hBMP4): -0.7 RU; binding response (resonance units) for 200 nM ligand (Activin AB [8]): 65.2 RU; binding response (resonance units) for 200 nM ligand (hBMP6): 1.1 RU; 50 nM Ag Bound (RU) (Activin AB [9]): 34.6 RU; Kd (Activin AB [9]): 0.32 nM; koff (Activin AB [9]): 0.00177 s⁻¹; kon (Activin AB [9]): 5.53e+06 M⁻¹ s⁻¹; t1/2 (Activin AB [9]): 6.5 min; 50 nM Ag Bound (RU) (Activin AC [10]): 21.4 RU; Kd (Activin AC [10]): 4.1 nM; koff (Activin AC [10]): 0.00599 s⁻¹; kon (Activin AC [10]): 1.46e+06 M⁻¹ s⁻¹; t1/2 (Activin AC [10]): 1.9 min
2 | 41.5 | 1.34 | 0.00817 | 6.08e+06 | 1.4 | 4.7e-11 | 5.6e-09 | 8.2e-09 | 12.6 | 11.8 | 0.0122 | 1.04e+06 | 0.9 | 3.3 | 53.2 | 2.6 | 0.5 | 0.7 | 1.8 | 15.2 | H4H10446P2 (antibody, human IgG4, V domains shown) VH: QVQLQESGPGLVKPSETLSLTCTVSGGSFSSHFWSWIRQPPGKGLEWIGYILYTGGTSFNPSLKSRVSMSVGTSKNQFSLKLSSVTAADTAVYYCARARSGITFTGIIVPGSFDIWGQGTMVTVSS VL: not shown | binding response (resonance units) for 200 nM ligand (hBMP9): -0.3 RU; binding response (resonance units) for 200 nM ligand (hBMP7): 5.7 RU; binding response (resonance units) for 200 nM ligand (hBMP4): 0.8 RU; binding response (resonance units) for 200 nM ligand (Activin AB [8]): 66.7 RU; binding response (resonance units) for 200 nM ligand (hBMP6): 5.3 RU; 50 nM Ag Bound (RU) (Activin AB [9]): 31.9 RU; Kd (Activin AB [9]): 0.815 nM; koff (Activin AB [9]): 0.00406 s⁻¹; kon (Activin AB [9]): 4.99e+06 M⁻¹ s⁻¹; t1/2 (Activin AB [9]): 2.8 min; 50 nM Ag Bound (RU) (Activin AC [10]): 14.4 RU; Kd (Activin AC [10]): 22.5 nM; koff (Activin AC [10]): 0.0216 s⁻¹; kon (Activin AC [10]): 959000 M⁻¹ s⁻¹; t1/2 (Activin AC [10]): 0.5 min
3 | 41 | 0.0535 | 0.000541 | 1.01e+07 | 21.3 | 6.1e-11 | 9.3e-10 | 1e-10 | 23.6 | 8.86 | 0.0109 | 1.23e+06 | 1.1 | -1.7 | 69.1 | 0.4 | 0.3 | -0.1 | 3 | 34.8 | H4H10430P (antibody, human IgG4, V domains shown) VH: EVQLVESGGGLVQPGRSLRLSCKASGFAFDDFAMHWVRQAPGKGLEWVSGIVWNSGDIGYADSVKGRFTISRDNAKNSLYLQLNSLRTEDTALYFCVKDMVRGLMGFNYYGMDVWGQGTTVTVSS VL: EIVLTQSPATLSLSPGERATLSCRASQTISTYLVWYRQRPGQAPSLLIYDASNRATDIPARFSGSGSGTDFTLTISSLEPEDFAVYYCQQRSNWPITFGQGTRLEIK | binding response (resonance units) for 200 nM ligand (hBMP9): -0.6 RU; binding response (resonance units) for 200 nM ligand (hBMP7): 6.4 RU; binding response (resonance units) for 200 nM ligand (hBMP4): -0.6 RU; binding response (resonance units) for 200 nM ligand (Activin AB [8]): 95 RU; binding response (resonance units) for 200 nM ligand (hBMP6): 5.7 RU; 50 nM Ag Bound (RU) (Activin AB [9]): 33 RU; Kd (Activin AB [9]): 0.0185 nM; koff (Activin AB [9]): 0.000217 s⁻¹; kon (Activin AB [9]): 1.17e+07 M⁻¹ s⁻¹; t1/2 (Activin AB [9]): 53.3 min; 50 nM Ag Bound (RU) (Activin AC [10]): 25.3 RU; Kd (Activin AC [10]): 16.7 nM; koff (Activin AC [10]): 0.02 s⁻¹; kon (Activin AC [10]): 1.2e+06 M⁻¹ s⁻¹; t1/2 (Activin AC [10]): 0.6 min
